Experimental data: patent US20020045192A1 (ST JUDE CHILDREN S RESEARCH HOSPITAL, published 2002)
Where no end group is shown, it is not given here.

T1: Hdm2 peptide, residues 275-289 of SEQ ID NO:8 (H2 segment) (human)
T1 construct: also called H2 peptide; one from the H2 segment
T1 peptide: Ac-VYQVTVYQAGESDTD-NH2


Experiments:
[1] = biological target: T2, Hdm2 210-275 (residues 210-275 of SEQ ID NO:8, His tag cleaved) (human, UniProt Q00987 210-275); assay: CD titration, ellipticity at 200 nm
Description: (§1) Further, saturable binding is also observed when the Hdm2 fragments were added to an excess of mArfN37.

[2] = biological target: T3, Hdm2 210-304 (residues 210-304 of SEQ ID NO:8, His tag cleaved) (human, UniProt Q00987 210-304); assay: CD titration, ellipticity at 200 nm
T3 construct: Non-His-tagged analyte in SPR; also used in CD, NMR, gel filtration
Description: as §1

[3] = biological target: T1, Hdm2 peptide, residues 275-289 of SEQ …; assay: CD titration, failure to induce structure
His-tagged Hdm2 210-304 [4] = biological target: T4, His-tagged Hdm2 210-304 (human, UniProt Q00987 210-304); assay: SPR, His-tagged Hdm2 210-304 captured by anti-His antibody, peptide injected 10 min, signal minus reference cell [a]
T4 construct: Captured on the C-1 chip by anti-His antibody for the Arf peptide library SPR; Tag placed first here
Description: (§2) Reactive sites remaining on the surface were blocked by reaction with ethanolamine. The His-tagged ligand was attached to the antibody by injecting a 5-10 μg/ml solution of the ligand in 10 mM HEPES, 150 mM NaCl, pH 7.4 (HBS-N buffer, Biacore) at a flow rate of 10 μL/min through the flow cell. A reference cell was prepared similarly except that no His-tagged ligand was added. Binding was measured by flowing the non-His-tagged analyte through the reference and ligand-containing flow cells in sequence. Prior to injection of ligands, the chip surfaces were equilibrated in HBS-N buffer. Changes in the SPR response due to solvent differences and the injection process were monitored by injection of HBS-N buffer alone. Regeneration of the chip surface to remove bound analyte and ligand was accomplished by two 100 μL injections of 10 mM glycine, pH 2.0 through both flow cells. Data reported is the difference in SPR signal between the flow cell containing analyte and the reference cell. Duplicate injections were made and the SPR response values reported are the average of these two injections.
(§3) Two libraries of peptides 15 amino acids in length were synthesized based on the sequence of exon 1β of mouse p19^Arf and the entire sequence of human p14^Arf. The sequence for the first peptide in each library corresponded to the first 15 amino acids of the protein sequences. […] This approach yielded two libraries of overlapping peptides spanning mouse p19^Arf residues 1-64 and human p14^Arf residues 1-132. The ability of these peptides to bind Hdm2 fragments was determined using the surface plasmon resonance (SPR) technique with a Biacore 3000 instrument. […] Library peptides were allowed to flow over the Hdm2 surface, or over a control surface lacking an Hdm2 fragment.

[5] = biological target: T2, Hdm2 210-275 (residues 210-275 of SEQ …); assay: CD-based binding assay
[6] = biological target: T3, Hdm2 210-304 (residues 210-304 of SEQ …); assay: CD-based binding assay
His-tagged Hdm2 210-304 [7] = biological target: T4, His-tagged Hdm2 210-304; assay: SPR, His-tagged Hdm2 210-304 captured by anti-His antibody, peptide injected 10 min, signal minus reference cell [b]
Description: as §2, §3

T2 sequence (Q00987 210-275): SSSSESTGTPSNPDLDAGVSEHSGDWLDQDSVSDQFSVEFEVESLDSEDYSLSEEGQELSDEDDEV
T3 sequence (Q00987 210-304): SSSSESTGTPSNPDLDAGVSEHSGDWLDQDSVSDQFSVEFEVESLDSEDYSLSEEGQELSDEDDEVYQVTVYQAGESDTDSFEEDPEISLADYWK
T4 sequence (Q00987 210-304): as above

Binder | binding result (His-tagged Hdm2 210-304 [4]) | binding result [5] | binding result [6] | binding result [3] | other results
MGRRFLVTVRIQRAGRPLQERVFLVKFVRSRRPRTAS (not fully specified, Tag-cleaved form used in CD, NMR and gel filtration; also called 15N-mArfN37) [mArfN37 (N-terminal fragment of mouse p19Arf, residues 1-37, His tag cleaved)] | – | – | – | – | Kd [1]: < 5 µM; Kd [2]: < 5 µM
Ac-RRPRTASCALAFVNM-NH2 [mouse p19Arf library peptide, residues 31-45 (contains the NoLS RRPR)] | binds | – | – | – | –
Ac-KFVRSRRPRTASCAL-NH2 (also called mouse p19Arf library peptide, residues 26-40) [26-40 (mouse Arf peptide)] | binds | – | – | – | –
Ac-RVFLVKFVRSRRPRT-NH2 (also called mouse p19Arf library peptide, residues 21-35) [21-35 (mouse Arf peptide)] | binds | – | – | – | –
Ac-MGRRFLVTVRIQRAG-NH2 (also called mouse p19Arf library peptide, residues 1-15) [1-15 (mouse Arf peptide)] | binds | – | – | – | –
Ac-LVTVRIQRAGRPLQE-NH2 (also called mouse p19Arf library peptide, residues 6-20) [6-20 (mouse Arf peptide)] | binds | – | – | – | –

The next lines start with results.

binding result (His-tagged Hdm2 210-304 [4]) | binding result [5] | binding result [6] | Binder | binding result [3] | other results
binds | no binding | binds | Ac-RPLQERVFLVKFVRS-NH2 (Same limits as the fourth peptide of the mouse library, so possibly a member of group m12; also called mouse A2) [mouse Arf motif peptide A2 (16-30)] | no binding (tested: 1-10 µM (concentrations used)) | –
– | binds | binds | Ac-MGRRFLVTVRIQRA-NH2 (the peptide tested spans 1-14; also called mouse A1) [mouse Arf motif peptide A1 (1-14)] | no binding (tested: 1-10 µM (concentrations used)) | –
no binding | – | – | Ac-AFVNMLLRLERILRR-NH2 (also called mouse p19Arf library peptide, residues 41-55) [41-55 (mouse Arf peptide)] | – | –
no binding | – | – | Ac-IQRAGRPLQERVFLV-NH2 (also called mouse p19Arf library peptide, residues 11-25) [11-25 (mouse Arf peptide)] | – | –
– | no binding | binds | Ac-GPPRVRVFVVHIPRL-NH2 (the peptide tested is the 15-mer 16-30; also called fourth peptide of the human library; human A2 (16-30)) [human p14Arf peptide, residues 16-30 (contains the human A2 motif)] | no binding (tested: 1-10 µM (concentrations used)) | binding result (His-tagged Hdm2 210-304 [7]): binds
– | binds | binds | Ac-MVRRFLVTLRIRRA-NH2 (the peptide tested spans 1-14; also called human A1) [human Arf motif peptide A1 (1-14)] | no binding (tested: 1-10 µM (concentrations used)) | –
